Experimental findings from the RNAGym collection of RNA variant scans (doi:10.7554/elife.90254) are described below.

The chains are these.
B1: LINE1-full (parent)
chain: UACGUAGGUGGUUUUCCCCUGAUAGUGCUAAGGGGGCCUGGAAGUUUGGACUGGGCAGAGCUCAACACAGCGUGGCAAAGUGGCUGUGGCUAGACUGCCUCUCUGGAUUCCUCGUCACUCAGCAGGGCAUCUCUGAGAGAAAUGCC

In the data set the parent is B1. Briefly: self-cleavage, relative activity (ratio to wild type); higher = more cleavage; in vitro, sequencing; the parent is a self-cleaving ribozyme.
For UACGUAGGUGGUUUUCCCCUGAUAGUGCUAAGGGGGCCUGGAAGUUUGGACUGGGCAGAGCUCAACACAGCGCGGCAAAGUGGCUGUGGCUAGACUGCCUCUUUGGAUUCCUCGUCACUCAGCAGGGCAUCUCUGAGAGAAAUGCC [U73C C103U], the self-cleavage amounted to 1.61.

Take UACGUAGGUGGUUUUCCCCUGAUAGUGCUAAGGGGGCCUGGAAGUUUGGACUGGGCAGAGCUCAACACAGCGCGGCAAAGUGGCUGUGGCUAGACUGCCUCUCUGGAUUCCUCGUCACUCAGCAGGGCAUCUCUGUGAGAAAUGCC [U73C A136U]: the self-cleavage was determined as 1.76.

UACGUAGGUGGUUUUCCCCUGAUAGUGCUAAGGGGGCCUGGAAGUUUGGACUGGGCAGAGCUCAACACAGCGCGGCAAAGUGGCUGUGGCUAGACUGCCUCUCUGGAUUCCUCGUCACUCAGCAGGGCAUCUCUGAGAGAAAUGCC [U73C]: the self-cleavage is 1.72. To UACGUAGGUGGUUUUCCCCUGAUAGUGCUAAGGGGGCCUGGAAGUUUGGACUGGGCAGAGCUCAACACAGCGCGGCAAAGUGGCUGUGGCUAGGCUGCCUCUCUGGAUUCCUCGUCACUCAGCAGGGCAUCUCUGAGAGAAAUGCC [U73C A94G] belongs 0.37. To UACGUAGGUGGUUUUCCCCUGAUAGUGCUAAGGGGGCCUGGAAGUUUGGACUGGGCAGAGCUCAACACAGCGAGGCAAAGUGGCUGUGGCUAGACUGCCUCUCUGGAUUCCUCGUCACUCAGCAGGGCAUCGCUGAGAGAAAUGCC [U73A U132G] belongs 2.06; to UACGUAGGUGGUUUUCCCCUGAUAGUGCUAAGGGGGCCUGGAAGUUUGGACUGGGCAGAGCUCAACACAGCGCGGCAAAGUGGCUGUGGCUAGACUGCCUCUCUGGAUUCCUCGUCACUCAGCGGGGCAUCUCUGAGAGAAAUGCC [U73C A124G], 0.64.

For the variant UACGUAGGUGGUUUUCCCCUGAUAGUGCUAAGGGGGCCUGGAAGUUUGGACUGGGCAGAGCUCAACACAGCGCGGCAAAGUGGCUGUGGCUAGACUGCCUCUCUGGAUUCCUCGUCACUCAGCUGGGCAUCUCUGAGAGAAAUGCC [U73C A124U], the self-cleavage worked out at 1.5.

For UACGUAGGUGGUUUUCCCCUGAUAGUGCUAAGGGGGCCUGGAAGUUUGGACUGGGCAGAGCUCAACACAGCGCGGCAAGGUGGCUGUGGCUAGACUGCCUCUCUGGAUUCCUCGUCACUCAGCAGGGCAUCUCUGAGAGAAAUGCC [U73C A79G], the self-cleavage stood at 1.79. To UACGUAGGUGGUUUUCCCCUGAUAGUGCUAAGGGGGCCUGGAAGUUUGGACUGGGCAGAGCUCAACACAGCGCGGCAAAGUGGCUGUGGAUAGACUGCCUCUCUGGAUUCCUCGUCACUCAGCAGGGCAUCUCUGAGAGAAAUGCC [U73C C90A] belongs 0.06.

For the variant UACGUAGGUGGUUUUCCCCUGAUAGUGCUAAGGGGGCCUGGAAGUUUGGACUGGGCAGAGCUCAACACAGCGCGGCAAAGUGGCUGUGGCUAGACUGCCUCUCUGGUUUCCUCGUCACUCAGCAGGGCAUCUCUGAGAGAAAUGCC [U73C A107U], the self-cleavage was determined as 2.22. Next, UACGUAGGUGGUUUUCCCCUGAUAGUGCUAAGGGGGCCUGGAAGUUUGGACUGGGCAGAGCUCAACACAGCGCGGCAAAGUGGCUGUGGCUAGACUGCCUCUCUGGAUUCCUCGUCACUCAGCAGGGCAUCUUUGAGAGAAAUGCC [U73C C133U]: 1.97; UACGUAGGUGGUUUUCCCCUGAUAGUGCUAAGGGGGCCUGGAAGUUUGGACUGGGCAGAGCUCAACACAGCGCGGCAAAGUGGCUGUGGCUAGACUGCCUCUCUGGAUUCCUCGUUACUCAGCAGGGCAUCUCUGAGAGAAAUGCC [U73C C116U]: 1.39; UACGUAGGUGGUUUUCCCCUGAUAGUGCUAAGGGGGCCUGGAAGUUUGGACUGGGCAGAGCUCAACACAGCGCGGCAAAGUGGCUGUGGCUAGACUGCCUCUCUGGAUUCCUCGUCACUCAGCAGGGCAUCUCUGAGAGAAAUGUC [U73C C145U]: 1.53. To UACGUAGGUGGUUUUCCCCUGAUAGUGCUAAGGGGGCCUGGAAGUUUGGACUGGGCAGAGCUCAACACAGCGCGGCAAAGUGGCUGUGGCUAGACUGCCUCUCUGGAUUUCUCGUCACUCAGCAGGGCAUCUCUGAGAGAAAUGCC [U73C C110U] belongs 2.11.

Regarding UACGUAGGUGGUUUUCCCCUGAUAGUGCUAAGGGGGCCUGGAAGUUUGGACUGGGCAGAGCUCAACACAGCGCGGCAAAGUGGCUGUGGCUAGACUGACUCUCUGGAUUCCUCGUCACUCAGCAGGGCAUCUCUGAGAGAAAUGCC [U73C C98A], the self-cleavage was 0.21. Next, UACGUAGGUGGUUUUCCCCUGAUAGUGCUAAGGGGGCCUGGAAGUUUGGACUGGGCAGAGCUCAACACAGCGAGGCAAAGUGGCUGUGGCUAGACUGCCUCUCUGGAUUCCUCGUCACCCAGCAGGGCAUCUCUGAGAGAAAUGCC [U73A U119C]: 1.86; UACGUAGGUGGUUUUCCCCUGAUAGUGCUAAGGGGGCCUGGAAGUUUGGACUGGGCAGAGCUCAACACAGCGAGGCAAAGUGGCUGUGGCUAGACUGCCUCUCUGGAUUCCUCGUCACACAGCAGGGCAUCUCUGAGAGAAAUGCC [U73A U119A]: 1.59; UACGUAGGUGGUUUUCCCCUGAUAGUGCUAAGGGGGCCUGGAAGUUUGGACUGGGCAGAGCUCAACACAGCGCGUCAAAGUGGCUGUGGCUAGACUGCCUCUCUGGAUUCCUCGUCACUCAGCAGGGCAUCUCUGAGAGAAAUGCC [U73C G75U]: 0.78. To UACGUAGGUGGUUUUCCCCUGAUAGUGCUAAGGGGGCCUGGAAGUUUGGACUGGGCAGAGCUCAACACAGCGCGGCAAAGUGGCUGUGGCUAGACUGCCUCUCUGGAUUCUUCGUCACUCAGCAGGGCAUCUCUGAGAGAAAUGCC [U73C C111U] belongs 2.14.

On to UACGUAGGUGGUUUUCCCCUGAUAGUGCUAAGGGGGCCUGGAAGUUUGGACUGGGCAGAGCUCAACACAGCGCGGCAAAGUGGCUGUGGCUAGACUGCCUUUCUGGAUUCCUCGUCACUCAGCAGGGCAUCUCUGAGAGAAAUGCC [U73C C101U], for which the self-cleavage is 1.01. To UACGUAGGUGGUUUUCCCCUGAUAGUGCUAAGGGGGCCUGGAAGUUUGGACUGGGCAGAGCUCAACACAGCGCGGCAAAGUGGCUGUGGCUAGACUGCCUCUCUGGAUUCCUCGUCACUCAGCAGGGCAUCUCUGAGAGAGAUGCC [U73C A141G] belongs 1.62; to UACGUAGGUGGUUUUCCCCUGAUAGUGCUAAGGGGGCCUGGAAGUUUGGACUGGGCAGAGCUCAACACAGCGCGGCAAAGUGGCUGUGGCUAGACUGCCUCUCUGGAUUCCUCGUCACUCAGCAGGGCAUCUCUGAGAGAUAUGCC [U73C A141U], 1.53; to UACGUAGGUGGUUUUCCCCUGAUAGUGCUAAGGGGGCCUGGAAGUUUGGACUGGGCAGAGCUCAACACAGCGCGGCAAAGUGGCUGUGGCUAGACUGCCUCUCUGGAUUCCUCGUCACUCAGCAGGGCAUCUCUGAGAGAAGUGCC [U73C A142G], 1.82. Consider UACGUAGGUGGUUUUCCCCUGAUAGUGCUAAGGGGGCCUGGAAGUUUGGACUGGGCAGAGCUCAACACAGCGCGGCAAAGUGGCUGUGGCUAGACUGCCUCUCUGGAUUCCUCGUCACUCAGCAGGGCAUCUCUGAGAGAAUUGCC [U73C A142U], for which the self-cleavage worked out at 1.24.

As to UACGUAGGUGGUUUUCCCCUGAUAGUGCUAAGGGGGCCUGGAAGUUUGGACUGGGCAGAGCUCAACACAGCGCGGUAAAGUGGCUGUGGCUAGACUGCCUCUCUGGAUUCCUCGUCACUCAGCAGGGCAUCUCUGAGAGAAAUGCC [U73C C76U], the self-cleavage is 2.52. Next, UACGUAGGUGGUUUUCCCCUGAUAGUGCUAAGGGGGCCUGGAAGUUUGGACUGGGCAGAGCUCAACACAGCGCGGCAAAGUGGCUGUGGCUAGACUGCCUCUCUGGAUUCCUAGUCACUCAGCAGGGCAUCUCUGAGAGAAAUGCC [U73C C113A]: 1.4; UACGUAGGUGGUUUUCCCCUGAUAGUGCUAAGGGGGCCUGGAAGUUUGGACUGGGCAGAGCUCAACACAGCGCGGCAAAGUGGCUAUGGCUAGACUGCCUCUCUGGAUUCCUCGUCACUCAGCAGGGCAUCUCUGAGAGAAAUGCC [U73C G86A]: 0.14. Next, UACGUAGGUGGUUUUCCCCUGAUAGUGCUAAGGGGGCCUGGAAGUUUGGACUGGGCAGAGCUCAACACAGCGCGGCUAAGUGGCUGUGGCUAGACUGCCUCUCUGGAUUCCUCGUCACUCAGCAGGGCAUCUCUGAGAGAAAUGCC [U73C A77U]: 1.31; UACGUAGGUGGUUUUCCCCUGAUAGUGCUAAGGGGGCCUGGAAGUUUGGACUGGGCAGAGCUCAACACAGCGAGGCAAAGUGGCUGUGGCUAGACUGCCUCUCUGGAUUCCUCGUCACUCAGCAGGGCACCUCUGAGAGAAAUGCC [U73A U130C]: 1.82. Next, UACGUAGGUGGUUUUCCCCUGAUAGUGCUAAGGGGGCCUGGAAGUUUGGACUGGGCAGAGCUCAACACAGCGAGGCAAAGUGGCUGUGGCUAGACUGCCUCUCUGGAUUCCUCGUCACUCAGCAGGGCAACUCUGAGAGAAAUGCC [U73A U130A]: 1.83; UACGUAGGUGGUUUUCCCCUGAUAGUGCUAAGGGGGCCUGGAAGUUUGGACUGGGCAGAGCUCAACACAGCGCGGCAAAGUGGCUGUGGCUAGACUGCCUCUCUGGAUUCCUCGUCACUCUGCAGGGCAUCUCUGAGAGAAAUGCC [U73C A121U]: 1.89.

As to UACGUAGGUGGUUUUCCCCUGAUAGUGCUAAGGGGGCCUGGAAGUUUGGACUGGGCAGAGCUCAACACAGCGCGGCAAAGUGGCUGUGGCUAGACUGCCUCUCUGGAUUCCUCGUCACUCAGCAGGGCAUUUCUGAGAGAAAUGCC [U73C C131U], the self-cleavage was 1.73. With UACGUAGGUGGUUUUCCCCUGAUAGUGCUAAGGGGGCCUGGAAGUUUGGACUGGGCAGAGCUCAACACAGCGCGGCAAAGUGGCUGUGGCUAGACUGCCUCUCUGGAUUCCUCGUCACUCAGCAGGGCAUGUCUGAGAGAAAUGCC [U73C C131G], the self-cleavage was found to be 1.73.

On to UACGUAGGUGGUUUUCCCCUGAUAGUGCUAAGGGGGCCUGGAAGUUUGGACUGGGCAGAGCUCAACACAGCGCGGCAAAGUGGCUGUGGCUAGACUGCCUCUCUGGAUUCCUCGUCACUCAGCAGGGCAUAUCUGAGAGAAAUGCC [U73C C131A], for which the self-cleavage is 1.55. Next, UACGUAGGUGGUUUUCCCCUGAUAGUGCUAAGGGGGCCUGGAAGUUUGGACUGGGCAGAGCUCAACACAGCGCGGCAAAGUGGCUGUGGCUAGACUGCCUCUCUGGAUUCCUCGUCACUCAGCAGGGCAUCUCUGAGAGUAAUGCC [U73C A140U]: 1.85.

With UACGUAGGUGGUUUUCCCCUGAUAGUGCUAAGGGGGCCUGGAAGUUUGGACUGGGCAGAGCUCAACACAGCGCGGCAAAGUGGCUGUGGCUAGACUGCCUCUCUGGAUUCCUCGUCACUCAGCAGGGCAUCUCUGAGAGGAAUGCC [U73C A140G], the self-cleavage amounted to 1.63. As for UACGUAGGUGGUUUUCCCCUGAUAGUGCUAAGGGGGCCUGGAAGUUUGGACUGGGCAGAGCUCAACACAGCGCAGCAAAGUGGCUGUGGCUAGACUGCCUCUCUGGAUUCCUCGUCACUCAGCAGGGCAUCUCUGAGAGAAAUGCC [U73C G74A], the self-cleavage amounted to 2.38. Next, UACGUAGGUGGUUUUCCCCUGAUAGUGCUAAGGGGGCCUGGAAGUUUGGACUGGGCAGAGCUCAACACAGCGCGGCAAAGUGGCUGUGGCUAGACUGCCUCUCUGGAUUCCUCGUCACUCAGCAGGGCGUCUCUGAGAGAAAUGCC [U73C A129G]: 1.98; UACGUAGGUGGUUUUCCCCUGAUAGUGCUAAGGGGGCCUGGAAGUUUGGACUGGGCAGAGCUCAACACAGCGCGGCAAAGUGGCUGUGGCUAGACUGCCUCUCUGGAUUCCUCGUCACUCAGCAGGGCCUCUCUGAGAGAAAUGCC [U73C A129C]: 1.36.
